Results on two molecules are retold here after patent publication US20240218070A1 (MERUS N V, published 2024).

The target of experiment [1] is T1, human FAP (huFAP) expressed on cells (human, UniProt Q12884 1-760).
T1 construct: also called WI-38 cells
T1 sequence: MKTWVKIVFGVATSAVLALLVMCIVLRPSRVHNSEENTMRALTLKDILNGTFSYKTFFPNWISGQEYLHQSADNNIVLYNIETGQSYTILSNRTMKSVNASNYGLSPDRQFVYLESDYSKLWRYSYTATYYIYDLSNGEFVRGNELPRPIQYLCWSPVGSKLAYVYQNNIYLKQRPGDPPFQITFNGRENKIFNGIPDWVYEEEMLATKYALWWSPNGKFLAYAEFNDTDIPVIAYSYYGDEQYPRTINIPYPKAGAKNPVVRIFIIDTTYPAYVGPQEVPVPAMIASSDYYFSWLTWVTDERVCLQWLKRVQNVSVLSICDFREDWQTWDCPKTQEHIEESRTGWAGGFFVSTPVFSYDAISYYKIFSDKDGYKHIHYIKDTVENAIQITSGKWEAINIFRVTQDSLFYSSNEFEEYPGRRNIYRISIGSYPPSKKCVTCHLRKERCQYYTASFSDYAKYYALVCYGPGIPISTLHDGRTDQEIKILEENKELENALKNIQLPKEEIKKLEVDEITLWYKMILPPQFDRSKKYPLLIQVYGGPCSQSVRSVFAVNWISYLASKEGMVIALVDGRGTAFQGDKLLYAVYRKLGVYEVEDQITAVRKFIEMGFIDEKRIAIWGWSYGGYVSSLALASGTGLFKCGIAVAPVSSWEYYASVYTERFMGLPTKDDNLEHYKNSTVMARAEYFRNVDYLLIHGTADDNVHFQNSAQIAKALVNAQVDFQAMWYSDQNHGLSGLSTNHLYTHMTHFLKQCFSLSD
In words: FACS, 293FF cells stably expressing huFAP, IgG at 2.5 ug/ml. How it is done:
The binding of all test and control antibodies to the cells was tested at a single concentration of 2.5 ug/ml. Goat-anti-human IgG F(ab)2-PE (Invitrogen, H10104) was used as secondary antibody (1:100 in FACS buffer). Ab0625 was used at 10 ug/ml and its binding was detected using Ab0250 (Becton Dickinson, 550767) (1:100 in FACS buffer). The FACS buffer containing PBS (Gibco, cat. #10010-015), 0.5% BSA (Thermo Scientific, cat. #37525), and 2 mM EDTA (Invitrogen, cat. #15575-020) was kept ice cold throughout the assay.
The target cells were harvested, counted, and centrifuged for 5 min at 300 g at 4 °C. Cells were then resuspended in FACS buffer at a concentration of 1×10⁶ cells/ml and transferred (200,000 cells/well) to a U-bottom 96-well FACS plate (BD, cat. #353910). Cells were then centrifuged for 3 min at 300 g at 4° C. and supernatant was discarded. 50 μl of primary antibody solutions were added to the cells, mixed, and incubated for 30 min at 2-8° C. in the dark. Cells were washed by adding 150 μl FACS buffer and centrifuged for 3 min at 300 g at 4° C. Supernatant was discarded, and cells were washed again by adding 200 μl FACS buffer to the plate. Cells were then centrifuged for 3 min at 300 g at 4° C. and afterwards the supernatant was discarded. 50 μl of secondary antibody solutions were added to the cells, mixed, and incubated for 30 min at 2-8° C. in the dark. […]

In experiment [2] the target is T1, human FAP (huFAP) expressed on cells. Description: FACS titration (10 ug/ml to 3.16 ng/ml) on WI-38 cells; positive control sibrotuzumab analog. The procedure:
The human anti-FAP panel was tested on WI-38 cells (endogenously expressing huFAP) and binding was measured by FACS.
The target cells were harvested, counted, and centrifuged for 5 min at 300 g at 4° C. Cells were then resuspended in FACS buffer at a concentration of 1×10⁶ cells/ml and transferred (200,000 cells/well) to a U-bottom 96-well FACS plate (BD, cat. #353910). Cells were washed by adding 200 μl PBS and centrifuged for 3 min at 300 g at 4 °C. Cells were then centrifuged for 3 min at 300 g at 4° C. and supernatant was discarded. Antibodies were diluted in an 8 steps, semi-log dilution series ranging from 10 ug/ml to 3.16 ng/ml in FACS buffer (50 μ/well), mixed, and incubated for 30 min at 2-8° C. in the dark. A titration of the sibrotuzumab analog was included as positive control and used to normalize data. The negative control TT antibody was included as negative control. Cells were washed by adding 150 μl FACS buffer and centrifuged for 3 min at 300 g at 4° C. Supernatant was discarded, and cells were washed again by adding 200 μl FACS buffer to the plate. Cells were then centrifuged for 3 min at 300 g at 4° C. and afterwards the supernatant was discarded. […] Fluorescence intensity of the cells was then measured on the iQue VBR (Intellicyt).

B1: anti-human FAP bivalent monospecific IgG comprising heavy chain variable region SEQ ID NO: 11 (antibody, V domains shown)
VH: EVQLVESGGGLVQPGGSLRLSCAASGFTFSSYAMIWVRQAPGKGLEWVSAISGSGGYTFNADSVKGRFTMSRDNSKNTLYLQMNSLRAEDTAVYYCAKRDGGYEGGAFDIWGQGTLVTVSS
VL: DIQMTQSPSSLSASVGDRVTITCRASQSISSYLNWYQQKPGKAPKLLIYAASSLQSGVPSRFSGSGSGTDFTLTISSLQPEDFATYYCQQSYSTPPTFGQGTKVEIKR
notes: IgG1 format, common light chain VK1-39/JK1
With B1, the binding result in experiment [1] was “binds”.

B2: anti-human FAP bivalent monospecific IgG comprising heavy chain variable region SEQ ID NO: 19 (antibody, V domains shown)
VH: EVQLVESGGGLVKPGGSLRLSCAASGFPFNYAWMSWVRQAPGKGLEWVGRIKPKTSGGATDYAAPVKDRFTISRDDSRNTLYLQMNSLKTEDTAVYYCSAREDIWNFFFDLWGQGTLVTVSS
VL: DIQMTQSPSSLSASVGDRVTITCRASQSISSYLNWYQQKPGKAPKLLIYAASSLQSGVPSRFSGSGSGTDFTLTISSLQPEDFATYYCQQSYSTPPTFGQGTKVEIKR
notes: as for B1
In the case of B2, the binding result in experiment [2] was “binds”.
